Values quoted from earlier work in paper PMC12583094, “A novel antioxidant peptide from black soybean [Glycine max (L.) Merr.] with verified MPO interaction and multi-scale antioxidant activity” (Frontiers in Nutrition, 2025).

System: MPO
Description: The RU values increased from approximately 0.79 RU to around 24.51 RU with increasing concentrations.

binding to MPO by SPR: clear dose-dependent binding effect
B1: ceruloplasmin: a physiological MPO inhibitor (protein, UniProt P00450 20-1065, looked up)
Ceruloplasmin: KEKHYYIGIIETTWDYASDHGEKKLISVDTEHSNIYLQNGPDRIGRLYKKALYLQYTDETFRTTIEKPVWLGFLGPIIKAETGDKVYVHLKNLASRPYTFHSHGITYYKEHEGAIYPDNTTDFQRADDKVYPGEQYTYMLLATEEQSPGEGDGNCVTRIYHSHIDAPKDIASGLIGPLIICKKDSLDKEKEKHIDREFVVMFSVVDENFSWYLEDNIKTYCSEPEKVDKDNEDFQESNRMYSVNGYTFGSLPGLSMCAEDRVKWYLFGMGNEVDVHAAFFHGQALTNKNYRIDTINLFPATLFDAYMVAQNPGEWMLSCQNLNHLKAGLQAFFQVQECNKSSSKDNIRGKHVRHYYIAAEEIIWNYAPSGIDIFTKENLTAPGSDSAVFFEQGTTRIGGSYKKLVYREYTDASFTNRKERGPEEEHLGILGPVIWAEVGDTIRVTFHNKGAYPLSIEPIGVRFNKNNEGTYYSPNYNPQSRSVPPSASHVAPTETFTYEWTVPKEVGPTNADPVCLAKMYYSAVEPTKDIFTGLIGPMKICKKGSLHANGRQKDVDKEFYLFPTVFDENESLLLEDNIRMFTTAPDQVDKEDEDFQESNKMHSMNGFMYGNQPGLTMCKGDSVVWYLFSAGNEADVHGIYFSGNTYLWRGERRDTANLFPQTSLTLHMWPDTEGTFNVECLTTDHYTGGMKQKYTVNQCRRQSEDSTFYLGERTYYIAAVEVEWDYSPQREWEKELHHLQEQNVSNAFLDKGEFYIGSKYKKVVYRQYTDSTFRVPVERKAEEEHLGILGPQLHADVGDKVKIIFKNMATRPYSIHAHGVQTESSTVTPTLPGETLTYVWKIPERSGAGTEDSACIPWAYYSTVDQVKDLYSGLIGPLIVCRRPYLKVFNPRRKLEFALLFLVFDENESWYLDDNIKTYSDHPEKVNKDDEEFIESNKMHAINGRMFGNLQGLTMHVGDEVNWYLMGMGNEIDLHTVHFHGHSFQYKHRGVYSSDVFDIFPGTYQTLEMFPRTPGIWLLHCHVTDHIHAGMETTYTVLQNEDTKSG
